Results published in patent US20160152995A1, “METHODS AND COMPOSITIONS TO IMPROVE THE SPREAD OF CHEMICAL SIGNALS IN PLANTS” (PIONEER HI-BRED INTERNATIONAL, INC., priority 2013, published 2016).

What was measured:
[1] = tested on: β-gal background activity; assay: First and second round library screen (L1, L2) for induction by sulfonylurea ligands, β-gal colony assay; assay type: cell-based, E. coli; details: for Inducer preference: β-gal colony assay, L2 library screened with each ligand at 2 ppm, numbers are the patent's inducer ligand numbers, atc for wt
Description: The original library was designed to thifensulfuron, but once induction activity was established with other SU compounds having potentially better soil and in planta stability properties than the original ligand, the evolution process was re-directed towards these alternative ligands. Of particular interest were herbicides metsulfuron, sulfometuron, ethametsulfuron and chlorsulfuron. For this objective, parental clones L1-9, -22, -29 and -44 were chosen for further shuffling. Clone L1-9 has strong activity on both ethametsulfuron and chlorsulfuron; clone L1-22 has strong sulfometuron activity; clone L1-29 has moderate metsulfuron activity; and clone L1-44 has moderate activity on metsulfuron, ethametsulfuron and chlorsulfuron. (Data not shown.). No clones found in the initial screen were exceptionally reactive to metsulfuron. These four clones were also chosen due to their relatively strong repressor activity, showing low β-gal background activity without inducer. Strong repressor activity is important for establishing a system which is both highly sensitive to the presence of inducer, and tightly off in the absence of inducer.
Based on the sequence information from parental clones L1-9, -22, -29 and -44, two second round libraries were designed, constructed and screened. The first library, L2, consisted of a ‘family’ shuffle whereby the amino acid diversity between the selected parental clones was varied using synthetic assembly of oligonucleotides to find clones improved in responsiveness to any of the four new target ligands.
The L2 oligonucleotides were assembled, cloned and screened as per the protocol described for library L1 except that each ligand was tested at 2 ppm to increase the stringency of the assay, which is a 10-fold reduction from 1st round library screening concentration.

E. coli assay strain Km3 [2] = assay type: cell-based
Procedure: Library L6 was assembled, rescued, ligated into pVER7314, transformed into E. coli KM3 and plated out onto LB carbenicillin/kanamycin, and carbenicillin only control media as before. Library plates were then picked into 42 384-well microtiter plates (˜16,000 clones) containing 60 μl LB carbenicillin (Cb) broth per well. After overnight growth at 37° C. the cultures were stamped onto M9 assay plates containing no inducer, 0.2 ppm, and 2.0 ppm chlorsulfuron as test inducer. Following incubation at 30° C. for ˜48 hrs, putative hits responding to chlorsulfuron treatment as determined by increased blue colony color were re-arrayed into six 96-well microtiter plates and used to stamp a fresh set of M9 assay plates to confirm the above results. For a more detailed analysis of the relative induction by chlorsulfuron, digital photographs were taken of the plates after various time points of incubation at 30° C. and colony color intensity measured using the digital image analysis freeware program ImageJ (Rasband, US National Institutes of Health, Bethesda, Md., USA, rsb.info.nih.gov/ij/, 1997-2007). […] From this analysis sequence-activity relationships were derived. […] Briefly, C at position 100, and Q at positions 108 and 109 strongly correlated with activation, while R at position 138, L at position 170, and A or G at position 173 were highly preferred in clones with the lowest background activity. […] This information will aid in the design of further libraries to improve responsiveness to chlorsulfuron.
Library L8 construction and screening. Fourth round shuffling incorporated the best diversity from Rd3 shuffling (BB1860) as well as computational diversity (Table 14). As diversity was very high the library oligo mix was spiked into the parental hit variant oligo mix (5, 10, and 25% mixes) to titer down the number of residue changes per clone. In addition, to varying residues for Cs activity, seven residues (C68, C86, C88, C121, C144, C195, and C203) were varied with TetR family phylogenetic substitutions in an attempt to reduce the number of cysteine residues in the repressor. The PCR assembled libraries were cloned Sac1/Asc1 into pVER7334. This plasmid encodes PBAD promoter controlled expression of a plant optimized TetR DNA binding domain fused to the wt ligand binding domain of TetR(B) encoded by native Tn10 sequence on a Sac1 to Asc1 fragment. Approximately 15,000 clones were screened for blue colony color on the M9 Xgal assay plates +/−200 ppb Chlorsulfuron (Cs). Clones were ranked by ratio of color with inducer after 24 hrs incubation over colony color without inducer for 48 hrs of incubation. The sequence trend in the overall larger population of hits (first re-array) was that L55, R104, W105 and L170 were maintained while the C144A substitution was highly preferred. Sequence trends within the hit population were then noted with respect to repression, induction and fold induction (which corrects for leakiness).
Mutagenesis reactions were transformed into library strain Km3 and 96 colonies tested for substitution by DNA sequence analysis. Substitutions representing each possible residue at each position were then re-arrayed in triplicate onto M9 X-gal assay plates with 0, 20 and 200 ppb Chlorsulfuron. Plates were incubated at 37° C. for 24 and 48 hrs prior to imaging. Residue substitutions were then ranked by activation (emphasis on 20 ppb Cs) and repression characteristics (emphasis on 48 hr time point). The mutation with the greatest impact on activity was substitution of residue N82 to phenylalanine or tyrosine. […] All other preferred substitutions shown in Table 18 either improved repression or improved sensitivity to inducer without compromising repressor function. Certain residues were indispensible to function such as R104, W105, and W174 as substitutions were not allowed. Other residue positions such as R138 and K177 were also flagged as critical since functional substitutions were extremely limited. […]

E. coli assay strain Km3 [3] = assay: Liquid B-galactosidase assays of chlorsulfuron repressor hits (induction and repression)
Procedure: In order to create new diversity for shuffling the top clone from CsL3 was subjected to error prone PCR mutagenesis using Mutazyme (Stratagene). The mutated PCR product encoding the CsR ligand binding domain was inserted into library expression vector pVER7334 as a Sac1 to Asc1 fragment, transformed into library strain Km3 and plated onto LB+40 ug/ml Kanamycin and 50 ug/ml Carbenecillin. Approximately 10,000 colonies were then replica plated onto M9 Xgal assay medium +/−20 ppb Cs. Putative hits were then re-arrayed and replica plated onto the same assay medium. Performance was gauged by the level of blue colony color after 24 hrs incubation on inducer (induction) and 72 hrs incubation without inducer (repression). The top hits were then subjected to liquid B-galactosidase assays for quantitative assessment (Table 21).
Seventh round library CsL4.2 was designed based on the best diversity from CsL3 and CsL3-MTZ library screens (Table 14). The library was assembled with oligonucleotides shown below in Table 22. The first and last primers were used as rescue primers. CsL4.2 included a C-terminal 6×His-tag extension to facilitate protein purification. The library was assembled and cloned into vector pVER7334 Sac1 to Asc1, transformed into library assay strain Km3 and plated onto LB+40 ug/m1 Kanamycin and 50 ug/ml carbenecillin. Approximately 8,000 colonies were re-arrayed into 384-well format and replica plated onto M9 Xgal assay medium +/−2 ppb Cs. Putative hits were re-arrayed in 96-well format onto the same media for re-testing. Confirmed hits were then tested for induction and repression aspects in liquid culture using B-galactosidase assays.
Mutagenesis reactions were transformed into E. coli assay strain Km3 and plated onto LB+50 ug/ml Carbenecillin. Colonies were then re-arrayed into 384 well format and replica plated onto M9 Xgal assay medium +/−5 ppb Chlorsulfuron. Putative hits were then re-arrayed and analyzed by B-galactosidase assays relative to the parent clones (FIG. 10).

[4] = library L1 initial screen, data not shown

B1: clone L1-22: SuR polypeptide, SEQ ID NO:7 (protein)
chain: MGSRLDKSKVINSALELLNEVGIEGLTTRKLAQKLGVEQPTLYWHVKNKRALLDALAIEMMDRHHTHFCPLEGESWQDFLRNTAKSYRCALLSHRDGAKVCLGTAITEKQYETKENNLAFLCQQGFSLENALYARQAVRVFTLGCVLFDQEMQVAKEERETPTTDSMPPLLRQASELLDHQGAEPAFLFGLELIICGLEKQLKSESGS
modifications: Sulfonylurea responsive repressor
[1]; [4]
  induction activity on sulfometuron: strong
[1]
  Inducer preference: 3

B2: clone L1-44: SuR polypeptide, SEQ ID NO:13 (protein)
chain: MGSRLDKSKVINSALELLNEVGIEGLTTRKLAQKLGVEQPTLYWHVKNKRALLDALAIEMLDRHATHFCPLEGESWQDFLRNNAKSYRCALLSHRDGAKVYLGTAVTEKQYETAENQLAFLCQQGFSLENALYAVKAVAGFTLGCVLWDQESQVAKEERETPTTASMPPLLRQAVELADHQGAEPAFLFGLELIICGLEKQLKCESGS
modifications: Sulfonylurea responsive repressor
[1]; [4]
  induction activity on chlorsulfuron: moderate
  induction activity on ethametsulfuron: moderate
  induction activity on metsulfuron: moderate
[1]
  Inducer preference: 9 (weak)

B3: clone L1-29: SuR polypeptide, SEQ ID NO:10 (protein)
chain: MGSRLDKSKVINSALELLNEVGIEGLTTRKLAQKLGVEQPTLYWHVKNKRALLDALAIEMMDRHQTHFCPLEGESWQDFLRNTAKSMRCALLSHRDGAKVWLGTRWTEKQYETPENMLAFLCQQGFSLENALYAWSAVCNFTLGCVLSDQERQVAKEERETPTTDSMPPLLRQAWELSDHQGAEPAFLFGLELIICGLEKQLKCESGS
modifications: Sulfonylurea responsive repressor
[1]; [4]
  induction activity on metsulfuron: moderate
[1]
  Inducer preference: 9 (weak)

B4: L8-3F01: library L8 chlorsulfuron repressor hit, parent for saturation mutagenesis (protein)
chain: MARLDKSKVINSALELLNEVGIEGLTTRKLAQKLGVEQPTLYWHVKNKRALLDALAIEMMDRHQTHYLPLEGESWQDFLRNNAKSCRRALLSHRDGAKVCLGTRWTEQQYETAENMLAFLTQQGFSLENALYAVSAVRVFTLGAVLFDQESQVAKEERETPTTDSMPPLLRQAWELKDHQGAEPAFLFGLELIIAGLEKQLKRESGS
modifications: Sulfonylurea responsive repressor
notes: library L8 chlorsulfuron repressor hit, parent for saturation mutagenesis
E. coli assay strain Km3 [2]; CsL3 hits, 20 ppb Cs vs no inducer
  F. IND = fold induction (IND/REP) (Colony Assay Results): 2.5
E. coli assay strain Km3 [2]; CsL3 hits, M9 Xgal colony color, 0 ppb Cs
  REP = repression in absence of inducer (Colony Assay Results): 0.7
E. coli assay strain Km3 [2]; CsL3 hits, M9 Xgal colony color, 20 ppb Cs
  IND = induction with 20 ppb CS (Colony Assay Results): 1.6
E. coli assay strain Km3 [2]; library L8 hits, M9 Xgal colony assay, 200 ppb Chlorsulfuron, 24 hrs
  IND = induction with 200 ppb Cs at 24 hrs (blue colony color intensity thru ImageJ analysis): 1.7
E. coli assay strain Km3 [2]; library L8 hits, M9 Xgal colony assay, ratio IND (200 ppb Cs, 24 hrs) / REP (48 hrs)
  F. IND = fold induction: induction with 200 ppb Cs at 24 hrs/repression at 48 hrs: 3.0
E. coli assay strain Km3 [2]; library L8 hits, M9 Xgal colony assay, without inducer, 48 hrs
  REP = repression measured without inducer after 48 hrs (blue colony color intensity thru ImageJ analysis): 0.6
E. coli assay strain Km3 [3]; CsL3-MTZ hits, 20 ppb Cs vs no inducer
  F. IND = fold induction (IND/REP) (B-galactosidase assay): 1
E. coli assay strain Km3 [3]; CsL3-MTZ hits, liquid B-galactosidase assay, 20 ppb Cs
  IND = induction with 20 ppb CS (B-galactosidase assay): 8
E. coli assay strain Km3 [3]; CsL3-MTZ hits, liquid B-galactosidase assay, no inducer
  REP = repression in absence of inducer (B-galactosidase assay): 7
E. coli assay strain Km3 [3]; CsL4.2 hits, 20 ppb Cs vs no inducer
  F. IND = fold induction (IND/REP) (B-galactosidase): 2.0
E. coli assay strain Km3 [3]; CsL4.2 hits, liquid B-galactosidase assay, 20 ppb Cs
  IND = induction with 20 ppb CS (B-galactosidase): 0.9
E. coli assay strain Km3 [3]; CsL4.2 hits, liquid B-galactosidase assay, no inducer
  REP = repression in absence of inducer (B-galactosidase): 0.4
